Laboratory results published in US20210130437A1.
Each block holds one substance with its values, some of them ahead of it.

What was measured:
[1] = target: TIGIT (Homo sapiens (Human)) (UniProt Q495A1); experiment: flow cytometry, TIGIT-expressing cells, secondary reagent alone
CD96 [2] = target: T1, CD96 (UniProt P40200); experiment: flow cytometry, CD96-expressing cells, secondary reagent alone
T1 sequence (looked up): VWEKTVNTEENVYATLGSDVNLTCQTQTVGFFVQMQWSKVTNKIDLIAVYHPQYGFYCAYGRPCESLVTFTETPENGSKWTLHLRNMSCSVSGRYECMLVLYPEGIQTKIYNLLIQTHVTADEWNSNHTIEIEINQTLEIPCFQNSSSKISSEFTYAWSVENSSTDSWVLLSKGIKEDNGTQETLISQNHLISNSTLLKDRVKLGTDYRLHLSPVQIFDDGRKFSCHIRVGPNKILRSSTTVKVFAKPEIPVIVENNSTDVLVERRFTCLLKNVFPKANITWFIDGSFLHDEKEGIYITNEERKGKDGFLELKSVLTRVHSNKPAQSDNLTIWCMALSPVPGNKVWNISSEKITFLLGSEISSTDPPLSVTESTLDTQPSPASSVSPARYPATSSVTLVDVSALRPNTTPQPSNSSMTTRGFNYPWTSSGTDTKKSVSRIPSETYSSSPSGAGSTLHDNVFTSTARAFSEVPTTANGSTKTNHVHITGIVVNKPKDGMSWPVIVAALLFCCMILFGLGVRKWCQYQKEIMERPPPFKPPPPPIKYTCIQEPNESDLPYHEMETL

CD112R [3] = target: CD112R (UniProt Q6DKI7); experiment: flow cytometry, CD112R-expressing cells, secondary reagent alone
[4] = target: CD226 (Homo sapiens (Human)) (UniProt Q15762); experiment: flow cytometry, CD226-expressing cells, secondary reagent alone
CD96 [5] = target: T1, CD96; experiment: flow cytometry, 100 nM Fc fusion on cells expressing CD96
[6] = target: human PD-1 and human TIGIT co-expressed on Jurkat cells (Jurkat/PD-1/TIGIT cells) (human); experiment: flow cytometry, Jurkat/PD-1/TIGIT cells
[7] = target: human TIGIT expressed on cells (Jurkat/TIGIT cells) (human) (UniProt Q495A1); experiment: flow cytometry, Jurkat/TIGIT cells
[8] = target: human PD-1 expressed on cells (Jurkat/PD-1 cells) (human) (UniProt Q15116); experiment: flow cytometry, Jurkat/PD-1 cells
[9] = target: rB7H6.Fc (recombinant B7-H6 Fc fusion protein, R&D Systems) (human) (UniProt Q68D85); experiment: flow cytometry of yeast-displayed parental NKp30 stained with […] rB7H6.Fc
CD112R [10] = target: CD112R (UniProt Q6DKI7); experiment: flow cytometry, CD112R-expressing cells, 100 nM
[11] = target: PD-1 stably expressed on Jurkat/IL-2 reporter cells (Jurkat/PD-1) (human) (UniProt Q15116); experiment: cell-based or functional assay
Chain of PD-1 stably expressed on Jurkat/IL-2 reporter cells (Jurkat/PD-1) (human) (Q15116 25-288): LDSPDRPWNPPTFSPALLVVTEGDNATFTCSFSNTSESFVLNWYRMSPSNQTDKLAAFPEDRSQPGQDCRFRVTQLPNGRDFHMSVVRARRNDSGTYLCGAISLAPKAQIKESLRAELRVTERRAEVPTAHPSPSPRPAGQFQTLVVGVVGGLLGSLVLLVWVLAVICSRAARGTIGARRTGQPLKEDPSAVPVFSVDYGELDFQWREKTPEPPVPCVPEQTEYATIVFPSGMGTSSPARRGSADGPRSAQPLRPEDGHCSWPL

Chain of CD112R (Q6DKI7 whole entry): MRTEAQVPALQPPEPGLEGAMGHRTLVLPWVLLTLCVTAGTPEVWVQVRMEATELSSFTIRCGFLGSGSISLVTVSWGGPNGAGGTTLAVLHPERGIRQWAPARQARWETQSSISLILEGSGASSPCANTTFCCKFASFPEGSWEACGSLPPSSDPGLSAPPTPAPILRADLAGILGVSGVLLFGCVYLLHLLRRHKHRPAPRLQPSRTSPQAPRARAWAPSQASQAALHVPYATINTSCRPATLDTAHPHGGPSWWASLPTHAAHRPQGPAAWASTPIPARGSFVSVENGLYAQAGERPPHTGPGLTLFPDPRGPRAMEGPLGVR
Chain of human PD-1 expressed on cells (Jurkat/PD-1 cells) (human) (Q15116 21-288): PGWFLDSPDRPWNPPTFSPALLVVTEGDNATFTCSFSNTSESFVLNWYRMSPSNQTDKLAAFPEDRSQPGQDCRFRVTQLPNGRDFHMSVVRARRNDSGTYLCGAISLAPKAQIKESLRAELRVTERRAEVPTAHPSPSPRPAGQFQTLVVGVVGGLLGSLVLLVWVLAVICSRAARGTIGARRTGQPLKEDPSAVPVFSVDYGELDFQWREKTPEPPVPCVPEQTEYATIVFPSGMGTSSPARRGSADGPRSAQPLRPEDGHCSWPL
Chain of human PD-1 and human TIGIT co-expressed on Jurkat cells (Jurkat/PD-1/TIGIT cells) (human) (chain, as listed by the source, chain 1 of 2): as the sequence (Q15116 21-288) above
Chain of human PD-1 and human TIGIT co-expressed on Jurkat cells (Jurkat/PD-1/TIGIT cells) (human) (chain, as listed by the source, chain 2 of 2): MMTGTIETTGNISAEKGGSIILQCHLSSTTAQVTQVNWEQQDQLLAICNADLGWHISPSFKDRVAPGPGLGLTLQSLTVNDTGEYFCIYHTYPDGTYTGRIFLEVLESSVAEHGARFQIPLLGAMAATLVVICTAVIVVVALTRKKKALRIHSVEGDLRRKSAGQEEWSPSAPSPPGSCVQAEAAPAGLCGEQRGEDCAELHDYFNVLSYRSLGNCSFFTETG
Chain of CD226 (Homo sapiens (Human)) (Q15762 19-336): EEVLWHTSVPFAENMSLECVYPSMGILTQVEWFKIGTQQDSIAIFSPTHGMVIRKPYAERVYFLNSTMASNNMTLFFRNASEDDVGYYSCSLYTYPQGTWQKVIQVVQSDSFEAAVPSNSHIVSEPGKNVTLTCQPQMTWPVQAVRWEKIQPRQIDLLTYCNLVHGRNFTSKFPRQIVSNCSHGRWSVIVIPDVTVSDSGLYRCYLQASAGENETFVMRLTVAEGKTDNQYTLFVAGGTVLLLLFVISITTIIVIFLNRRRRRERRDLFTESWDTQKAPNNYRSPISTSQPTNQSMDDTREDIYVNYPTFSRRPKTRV
Chain of rB7H6.Fc (recombinant B7-H6 Fc fusion protein, R&D Systems) (human) (Q68D85 25-262 limits assumed): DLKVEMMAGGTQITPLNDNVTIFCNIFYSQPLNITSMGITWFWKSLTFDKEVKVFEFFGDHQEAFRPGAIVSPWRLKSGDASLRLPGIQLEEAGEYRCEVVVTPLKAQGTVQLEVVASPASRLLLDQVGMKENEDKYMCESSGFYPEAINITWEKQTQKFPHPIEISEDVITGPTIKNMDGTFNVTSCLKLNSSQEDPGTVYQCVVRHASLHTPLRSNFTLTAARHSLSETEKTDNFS
Chain of TIGIT (Homo sapiens (Human)) (Q495A1 22-244): as the sequence (chain, as listed by the source, chain 2 of 2) above
Chain of human TIGIT expressed on cells (Jurkat/TIGIT cells) (human) (Q495A1 22-244): as the sequence (chain, as listed by the source, chain 2 of 2) above

MFI at 20 nM [1]: 1140
MFI at 20 nM (CD96 [2]): 1060
MFI at 20 nM (CD112R [3]): 1010
MFI at 20 nM [4]: 1010
Substance: Anti-hFc PE (antibody)

MFI at 100 nM (CD96 [5]): 2850
Substance: CD112 variant IgV-Fc fusion V19A, N47K, N106Y, K116E, S118Y

MFI at 6.25 nM [6]: 48 MFI
Substance: Fc Control (heterodimer) (from UniProt P0DOX5 218-449; P0DOX5 218-449)

MFI at 6.25 nM [6]: 66 MFI
Substance: Fc Control (homodimer) (from UniProt P0DOX5 218-449)

MFI at 6.25 nM [7]: 48 MFI
MFI at 6.25 nM [6]: 41 MFI
Fold increase over wildtype PD-L1 IgV-Fc [8]: 0 fold
MFI at 6.25 nM [8]: 41 MFI
MFI at 50 nM [8]: 198 MFI
Substance: Human IgG (irrelevant Ig control) (antibody)

Fold increase over wildtype PD-L1 IgV-Fc [8]: 15.4 fold
MFI at 50 nM [8]: 80500 MFI
Substance: PD-L1 variant IgV-Fc I20L/K28E/D43G/N45D/V58A/Q89R (Fc fusion)

MFI at 6.25 nM [6]: 249 MFI
Substance: Wild Type CD155 full ECD Fc (from UniProt P15151 21-343) (Fc fusion)

MFI at 6.25 nM [6]: 314 MFI
Substance: Wild Type PD-L2 full ECD Fc (from UniProt Q9BQ51 20-220) (Fc fusion)

MFI [9]: 90
Substance: parental NKp30 strain (wild-type NKp30 IgC-like domain displayed on yeast) (from UniProt O14931 19-134) (receptor)

MFI at 100 nM (CD112R [10]): 2050
Substance: variant CD112 IgV-Fc R12W, Y33H, Q79R, V101M, A112V (Fc fusion)

MFI at 100 nM (CD112R [10]): 2350
Substance: variant CD112 IgV-Fc Y33H, A112V, S118Y (Fc fusion)

MFI at 6.25 nM [6]: 20300 MFI
Substance: variant PD-L2 IgV-Fc H15Q/T47A/K65R/S67L/Q82R/V89D (Fc fusion)

Fold increase over wildtype PD-L2 IgV-Fc (IFN gamma, MLR) [11]: 0.61 fold
IFN gamma levels pg/mL (MLR) [11]: 836 pg/mL
Substance: variant PD-L2 IgV-Fc I13V,H15Q,T47A,E58G,S67L,Q82R,V89D (Fc fusion)
